Measurements reported in publication PMC8125230, “Crystal Structure of Escherichia coli Agmatinase: Catalytic Mechanism and Residues Relevant for Substrate Specificity” (International Journal of Molecular Sciences, 2021).

Biological target: the molecule itself
Test: crystal structure; sitting drop vapor diffusion at 18 °C; protein 12 mg/mL in 25 mM Tris-HCl pH 8.0, 2 mM MnCl2, 100 mM guanidine chloride; two crystal forms (7LOL at 1.8 Å, 7LOX at 3.2 Å); oligomeric state analysed with PISA

B1: Agmatinase from Escherichia coli (enzyme)
chain: MSTLGHQYDNSLVSNAFGFLRLPMNFQPYDSDADWVITGVPFDMATSGRAGGRHGPAAIRQVSTNLAWEHNRFPWNFDMRERLNVVDCGDLVYAFGDAREMSEKLQAHAEKLLAAGKRMLSFGGDHFVTLPLLRAHAKHFGKMALVHFDAHTDTYANGCEFDHGTMFYTAPKEGLIDPNHSVQIGIRTEFDKDNGFTVLDACQVNDRSVDDVIAQVKQIVGDMPVYLTFDIDCLDPAFAPGTGTPVIGGLTSDRAIKLVRGLKDLNIVGMDVVEVAPAYDQSEITALAAATLALEMLYIQAAKKGE
notes: Agmatinase (EcAGM), Escherichia coli; wild type; gene cloned into pQE60; residues 11 to 26 of the N-terminal end are modeled in the structure; The hexamer (dimer of trimers) is built by crystal symmetry: 7LOL has one chain and 7LOX three chains in the asymmetric unit; also called EcAGM; E. coli AGM; source: E. coli BL21(DE3), purified (HisTrap HP, S-200 size exclusion)
stoichiometry N: 6
